Results published in PMC2770179 (Journal of molecular catalysis. B, Enzymatic, 2009).
Substitutions are numbered along the chain they refer to.

Experiments:
[1] = molecular target: T1, L2S of hE2 (residues 128-330) mutant R297A (human, UniProt P10515 214-416, R297A); test: SPR
T1 sequence (looked up): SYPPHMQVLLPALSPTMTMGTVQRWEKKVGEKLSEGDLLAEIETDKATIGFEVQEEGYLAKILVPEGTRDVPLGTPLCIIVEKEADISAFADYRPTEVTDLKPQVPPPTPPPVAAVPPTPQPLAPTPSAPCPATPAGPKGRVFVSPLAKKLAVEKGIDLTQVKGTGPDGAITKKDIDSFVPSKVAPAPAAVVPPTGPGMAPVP

[2] = molecular target: T2, L2S of hE2 (residues 128-330) mutant K276A (human, UniProt P10515 214-416, K276A); test: SPR
T2 sequence (looked up): T1 sequence (looked up) with K149A, A170R

B1: human pyruvate dehydrogenase (E1), wild type, α2β2 heterotetramer (complex)
chain 1: FANDATFEIKKCDLHRLEEGPPVTTVLTREDGLKYYRMMQTVRRMELKADQLYKQKIIRGFCHLCDGQEACCVGLEAGINPTDHLITAYRAHGFTFTRGLSVREILAELTGRKGGCAKGKGGSMHMYAKNFYGGNGIVGAQVPLGAGIALACKYNGKDEVCLTLYGDGAANQGQIFEAYNMAALWKLPCIFICENNRYGMGTSVERAAASTDYYKRGDFIPGLRVDGMDILCVREATRFAAAYCRSGKGPILMELQTYRYHGHSMSDPGVSYRTREEIQEVRSKSDPIMLLKDRMVNSNLASVEELKEIDVEVRKEIEDAAQFATADPEPPLEELGYHIYSSDPPFEVRGANQWIKFKSVS
chain 2: LQVTVRDAINQGMDEELERDEKVFLLGEEVAQYDGAYKVSRGLWKKYGDKRIIDTPISEMGFAGIAVGAAMAGLRPICEFMTFNFSMQAIDQVINSAAKTYYMSGGLQPVPIVFRGPNGASAGVAAQHSQCFAAWYGHCPGLKVVSPWNSEDAKGLIKSAIRDNNPVVVLENELMYGVPFEFPPEAQSKDFLIPIGKAKIERQGTHITVVSHSRPVGHCLEAAAVLSKEGVECEVINMRTIRPMDMETIEASVMKTNHLVTVEGGWPQFGVGAEICARIMEGPAFNFLDAPAVRVTGADVPMPYAKILEDNSIPQVKDIIFAIKKTLNI
- fold increase in KD against wild-type L2S [1]: 6.8 fold
- fold increase in KD against wild-type L2S [2]: ~86 fold
